Reference: the supplement of paper PMC9876800

System: peptide library, one residue held at a place counted from the S/T acceptor
Experiment: relative phosphorylation of the sub-library (ratio to the mean residue at this position); higher = residue favoured
Conditions: human
In short: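 Relative sub-library phosphorylation is the ratio of each sub-library's signal to the mean residue at that position. The signal came from phosphorimaging of spots on streptavidin membranes, quantified by densitometry, after purified recombinant kinases reacted with biotinylated degenerate peptide sub-libraries in 384-well plates. Reactions held 50 μM peptide and 50 μM ATP spiked with γ-32P-ATP for 90 min under kinase-specific conditions.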

ERN2, construct: aa490-end, sequence (Q76MJ5 490-926, looked up): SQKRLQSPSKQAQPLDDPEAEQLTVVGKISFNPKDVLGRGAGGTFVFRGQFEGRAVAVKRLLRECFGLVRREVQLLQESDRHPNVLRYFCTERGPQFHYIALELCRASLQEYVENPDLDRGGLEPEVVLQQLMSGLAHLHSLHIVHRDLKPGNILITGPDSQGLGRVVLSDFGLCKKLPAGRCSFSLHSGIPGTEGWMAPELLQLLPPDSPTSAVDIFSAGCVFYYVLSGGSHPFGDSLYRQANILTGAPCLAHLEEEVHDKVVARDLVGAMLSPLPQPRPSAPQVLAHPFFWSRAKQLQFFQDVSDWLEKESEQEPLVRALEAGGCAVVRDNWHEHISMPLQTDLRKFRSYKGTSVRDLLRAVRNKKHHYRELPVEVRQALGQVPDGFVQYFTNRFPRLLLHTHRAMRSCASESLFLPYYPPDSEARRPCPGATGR
DCLK2, construct: aa1-690, sequence (Q8N568 1-690, looked up): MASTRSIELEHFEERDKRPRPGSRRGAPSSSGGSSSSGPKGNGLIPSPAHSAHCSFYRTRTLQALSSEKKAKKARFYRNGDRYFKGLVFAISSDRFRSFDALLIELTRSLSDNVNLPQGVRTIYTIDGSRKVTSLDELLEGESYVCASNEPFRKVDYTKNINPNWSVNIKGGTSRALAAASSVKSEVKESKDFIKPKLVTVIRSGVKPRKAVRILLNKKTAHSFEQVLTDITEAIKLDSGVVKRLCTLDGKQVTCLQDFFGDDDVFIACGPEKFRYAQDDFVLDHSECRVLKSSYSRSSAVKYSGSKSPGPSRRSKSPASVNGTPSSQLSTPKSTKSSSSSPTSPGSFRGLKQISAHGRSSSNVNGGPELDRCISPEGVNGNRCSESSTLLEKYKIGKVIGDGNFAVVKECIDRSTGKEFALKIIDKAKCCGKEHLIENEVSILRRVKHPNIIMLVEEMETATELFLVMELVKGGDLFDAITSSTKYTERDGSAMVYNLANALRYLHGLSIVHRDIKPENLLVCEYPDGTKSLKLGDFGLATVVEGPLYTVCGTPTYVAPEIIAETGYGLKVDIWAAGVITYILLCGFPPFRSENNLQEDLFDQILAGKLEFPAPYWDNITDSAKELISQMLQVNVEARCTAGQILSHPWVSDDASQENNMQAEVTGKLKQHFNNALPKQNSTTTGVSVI

DCLK2, construct: aa1-690 (from UniProt Q8N568)
relative phosphorylation
Conditions	at +1	at +2	at +3	at +4	at -1	at -2	at -3	at -4	at -5
A fixed	0.573	0.702	0.791	0.84	0.731	1.26	0.798	1.03	0.816
D fixed	0.373	0.373	0.673	0.855	0.669	0.725	0.372	0.573	0.437
E fixed	0.414	0.304	0.701	0.838	0.436	1.56	0.427	0.748	0.4
F fixed	3.73	1.72	1.17	1.22	0.853	0.659	0.406	0.988	1.55
G fixed	0.532	0.412	0.887	0.922	1.31	1.08	0.589	1.11	0.76
H fixed	0.815	1.63	1.19	0.987	1.2	0.934	0.831	1	0.907
I fixed	0.918	1.35	0.815	0.917	0.522	0.437	0.33	0.885	1.1
K fixed	1.18	0.639	1.35	1.28	2.27	1.9	3.49	1.8	1.36
L fixed	0.882	1.26	1.09	1.16	0.884	0.687	0.436	0.99	1.47
M fixed	1.4	1.07	1.02	1.12	0.804	0.909	0.484	0.947	1.15
N fixed	0.77	0.49	0.91	0.93	1.16	1.1	0.581	0.784	0.649
P fixed	0.371	0.522	0.727	1.19	0.981	0.423	0.701	0.977	0.946
Q fixed	0.915	0.531	0.947	1.01	0.863	1.79	0.787	1.04	0.802
R fixed	0.903	0.554	1.37	1.05	2.06	1.65	5.46	1.32	1.44
V fixed	0.702	1.1	0.923	0.758	0.554	0.462	0.315	0.941	0.923
W fixed	1.22	1.42	1.27	1.09	0.621	0.725	0.549	0.914	1.17
Y fixed	1.3	2.91	1.17	0.846	1.09	0.695	0.447	0.942	1.12
pThr fixed	0.782	0.935	1.04	0.993	0.455	0.391	0.374	0.652	0.506
pTyr fixed	0.776	7.04	1.07	0.687	0.515	0.367	0.298	0.548	0.576

ERN2, construct: aa490-end (from UniProt Q76MJ5)
relative phosphorylation
Conditions	at +1	at +2	at +3	at +4	at -1	at -2	at -3	at -4	at -5
A fixed	0.889	0.315	0.399	0.712	1.08	0.826	0.865	0.986	0.969
D fixed	0.292	0.208	0.22	0.365	0.7	0.969	0.947	0.892	0.961
E fixed	0.428	0.217	0.165	0.347	1.19	1.29	1.02	0.918	0.87
F fixed	0.683	0.733	1.24	0.849	0.953	0.865	0.676	0.677	0.695
G fixed	1.16	0.332	0.407	0.844	0.758	1.11	1.32	1.04	1.01
H fixed	0.924	0.767	1.27	1.08	1.6	1.08	1.17	1.17	1.24
I fixed	0.78	1.09	1.22	1.04	0.459	0.672	0.792	0.732	0.796
K fixed	2.19	2.21	1.39	1.94	0.955	1.43	1.12	1.53	1.6
L fixed	0.702	1.39	1.38	0.935	0.58	0.592	0.66	0.693	0.691
M fixed	1.24	1.32	0.95	0.996	0.951	0.814	0.861	0.751	0.704
N fixed	0.997	0.507	0.441	0.763	0.986	1.1	1.21	1.38	1.17
P fixed	0.247	0.305	0.346	1.15	1.47	1.37	1.09	0.914	0.915
Q fixed	1.44	0.787	0.591	1.04	1.42	1.25	1.27	1.14	1.14
R fixed	2.95	2.57	3.56	1.81	0.94	1.5	1.42	1.57	1.78
V fixed	0.809	1.16	0.669	0.86	0.927	0.732	0.776	0.759	0.704
W fixed	0.572	0.72	1.45	1.21	0.798	0.651	0.875	0.994	0.893
Y fixed	0.694	2.36	1.3	1.04	1.23	0.769	0.941	0.858	0.858
pThr fixed	0.298	0.212	0.237	0.355	0.355	0.648	0.798	0.779	0.732
pTyr fixed	0.286	0.235	0.283	0.296	0.692	0.694	0.652	0.474	0.562
